Assay results reported in paper PMC3326387.

Biological target: ecto-FLRT3 (immobilized for SPR) (UniProt Q8BGT1)
Assay: SPR

Chain of UniProt Q8BGT1 (Q8BGT1 29-528): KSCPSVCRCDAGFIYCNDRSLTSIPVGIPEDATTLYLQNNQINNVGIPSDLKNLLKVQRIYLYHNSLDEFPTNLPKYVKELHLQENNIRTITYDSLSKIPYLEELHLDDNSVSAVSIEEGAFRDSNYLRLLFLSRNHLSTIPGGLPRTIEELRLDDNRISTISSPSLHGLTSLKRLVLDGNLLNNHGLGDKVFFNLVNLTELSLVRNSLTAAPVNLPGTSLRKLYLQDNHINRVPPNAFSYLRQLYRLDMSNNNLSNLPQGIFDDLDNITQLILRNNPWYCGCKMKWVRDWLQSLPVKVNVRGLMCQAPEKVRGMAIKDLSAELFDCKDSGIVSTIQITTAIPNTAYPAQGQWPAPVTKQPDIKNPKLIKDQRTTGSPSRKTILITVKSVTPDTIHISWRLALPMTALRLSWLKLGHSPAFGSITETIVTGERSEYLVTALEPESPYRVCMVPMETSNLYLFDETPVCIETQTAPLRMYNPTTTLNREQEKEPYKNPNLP

## ecto-LPHN3-Fc (from UniProt Q80TS3 20-1537) (Fc fusion)
  Kd: 14.7 nM
